The assay can be described thus: Single-channel current recording in planar phospholipid bilayer membranes. As to conditions: voltage clamp, peptide added to one side, pH 7.4. As to the method: Planar phospholipid bilayer membranes were formed as described by Mirzabekov et al. (1999) Meth. Enzymol. 294: 61-74. A bubble of lipid dissolved in heptane was placed at the end of a small (100-300 μm) Teflon tube. Silver/silver chloride electrodes connected the aqueous components bounding the membrane to a voltage clamp. Ion-channel currents through the membrane were recorded by an Axopatch amplifier (Axon Instruments, Sunnyvale, Calif.). Data were filtered at 1 kHz and stored on VHS tape. Membrane capacitance and resistance were monitored continuously to ensure the formation and stability of reproducible membranes and the proper membrane thickness. […] Peptide samples were introduced by perfusing the aqueous solution bounding one side of the membrane.

We go through one molecule from US20070238184A1, “Amyloid beta protein channel structure and uses thereof in identifying potential drug molecules for neurodegenerative diseases” (The Regents of the University of California, priority 2005, published 2007).

B1: SAA: human apo-serum amyloid A purchased from PeproTech (protein, UniProt P0DJI8 19-122, looked up)
Serum amyloid A-1 protein: RSFFSFLGEAFDGARDMWRAYSDMREANYIGSDKYFHARGNYDAAKRGPGGAWAAEVITDARENIQRFFGHGAEDSLADQAANEWGRSGKDPNHFRPAGLPEKY
On to B1, for which the “induction of single-channel ion currents / conductances” value is on record as “Current jumps corresponding to the opening or closing of individual ion channels can be observed”.
